Measurements as given in patent US20250241939A1, “NUCLEIC ACID-BASED DELIVERY SYSTEMS AND USES THEREOF” (Kodikaz Therapeutic Solutions, Inc., priority 2022, published 2025).

System: MM1s (multiple myeloma) cell genome
Assay: ctDNA coculture with MM1s cells, whole genome sequencing: genomic insertion sites, transposons at insertion points and SNVs (multiple myeloma)
Format: cell-based, human
Conditions: multiple myeloma; for Gene: gene at identified genomic insertion site; for Location / Chr position: identified genomic insertion site; for Location: chromosome; for No. SNP: number of single nucleotide variants (SNVs or SNPs) identified
Procedure: The integration of ctDNAs into the host cell genome was evaluated. ctDNA was extracted from patient plasma, cultured for 24 hours with cells of a matching cancer cell type or non-matching cancer cell type, and whole genome sequencing was performed. The cell lines used were MM1s (multiple myeloma, MM) and MIA (pancreatic cancer, PC).
Single nucleotide variants (SNVs) unique to the ctDNA that were found in the host cell genome under matching coculture conditions were identified.
The sequence data was used to reconstruct genomic contigs for each experimental condition by de novo assembly. […] Coculture contigs carrying a ctDNA insertion were identified using NucDiff analysis. BLAST alignment analysis further validated the gain of ctDNA fragments in coculture conditions and identified the transition points of ctDNA insertion (FIGS. 3A-3C). […] The remaining 20% inserted into a chromosomal location distinct from their site of origin.
Experiments were designed to identify the presence of transposons in ctDNA fragments. To map ctDNA genomic junctions more precisely, a PACBIO probe was ligated to multiple myeloma and pancreatic cancer ctDNA samples to label their 5′ and 3′ ends. Whole-genome sequencing of DNA from cells with ctDNA genomic integration was done using the Illumina platform. De novo assembly was performed on the sequencing output. ctDNA contigs containing PACBIO adaptor were then matched to those contigs containing inserted ctDNA sequences identified in the coculture experiments. Transposable element on ctDNA sequences at the insertion points (<100 nucleotides from transition point between cell and ctDNA) were detected and classified using RepeatMaster.
A search was conducted for transposons that preferentially target cells of matching tumor types. The lists of transposons identified at the ctDNA insertion point in matching and mismatched coculture conditions were compared (e.g., MM ctDNA with MM cells or PC cells). Transposons were selected that were uniquely or preferentially inserted in the matching conditions.
In multiple myeloma, AluSp, MER11, MER11C, AluJb, and L2a, among other subfamilies of retrotransposons were identified at the MM ctDNA insertion sites (FIG. 5B and TABLE 7).
Whole-genome sequencing and Whole exon sequencing: ctDNA was extracted from 10 MM and 10 PC patients. DNA from CD138 (+) cells and from cell lines used in in vitro experiments (MM1s and MIA) was extracted using Blood & Cell Culture DNA Mini Kit (Quiagen, MD). DNA from […] paraffin embedded pancreatic tumors was obtained using QIAamp DNA FFPE Tissue Kit Print (Qiagen, MD).
After extraction, ctDNA was ligated to the PACBIO adaptor ([…]) using the ABM DNA Library Prep Kit for Illumina Sequencing (Applied Biological Materials Inc. Canada). PACBio-labeled ctDNA and regular ctDNA were subjected to standard methods for library preparation and sequencing using Illumina and Agilent protocols, respectively. Applied Biological Materials Inc. prepared the libraries and performed whole-exon and -genome sequencing. The average target coverage was 50×.
Identification of transposable elements and its nucleotide variants: To determine the locations of transposable-like regions in contigs, sequences were analyzed and transposable elements (TEs) were identified and classified using RepeatMasker version 4.1.0 and the Dfam database (release 3.1) of repetitive DNA families was used as a reference for identifying repeats in ctDNA contig sequences that were part of qualifying structural events. For each repeat sequence identified by RepeatMasker, the overall frequency of the specific repeat (e.g., for AluSp or L1) and their parent class (e.g., SINE) was computed.
Once the TE elements were identified, hit repeats/TE sequences, unique contigs for all samples, and insertion sequence were aligned with MAFFT software version. […]

Row | Molecule | Gene | Location | Chr position | No. SNP
1 | 21 (nucleic acid, listed as Homo sapiens) CAGCGCAAGTAATATATCCTGGAATTGGAAGCAGAATGGGAACTATGGACTCAGTGAAGATTGTTCTGGACATTATTTGATTCTTCTTTCTCGCTGCCAATTGGATACTTTTTTTTTTTTTTTGAGACAGAGTCT | TBL1XR1 | Chr3 | 176878250 | 1
2 | 22 (nucleic acid, listed as Homo sapiens) CAGCGCAAGTAATATATCCTGGAATTGGAAGCAGAATGGGAACTATGGACTCAGTGAAGATTGTTCTGGACATTATTTGATTCTTCTTTCTCGCTGCCAATTGGATACTTTTTTTTTTTTTTGAGACAGAGTCT | TBL1XR1 | Chr3 | 176878250 | 1
3 | 23 (nucleic acid, listed as Homo sapiens) TTCATCTTACAGAGATAAACATTTATCTTGATTCAGCAGTTTGGAAACACTGTTTTTATCCATTCTGTGAATGGACATTTGGGAGTTCATTAAGGCACACATGAAAAGGTGTATATCCCAGGGTAAAAACTAGAAGGAAGCTATCTGAGAAACCACTCTGTGGTGTGTGCATTGATCTCGCTGATTTAAAGCTTTCTTTTGATTCAGCAGTTTGGAATCACTGTTTGTGCTCATTCTGTAAATGGATATTTGGGAGCTCATTGAGGTCAATGGCAAAAAAGTGAATAACTGAGGATAAAAACTAGAAATAAGCTATCTGAGAAACGGATTTATGATGTGTGCATTCATCTCGCAAAATTAAACATTTCTTTTCCTTCAACAGTTTGGAAACACGGTTTTTATAGGATCTGCAAAGGGATATTTTGGAGCACATTGAGGTCTATGGTGTAAAAGAAAATATCTTCAGATAAAACCTAGAAAGAAGCTTTCTGAGAAATTGCATTTTGATGTGTGCATTCATCTCACAGAGTTAATACTTTTTTTTGATTCACCAGTGTGGATACACTGTTTTTGTCCATTCTGCTAATGGACCTTTGGGGGCTCATTTAGGCCAATGGCAAAAAAGTGAATATCCCAGGATAAAAACTAGAAGGAAGGTATCTGAGAAACTGCTATGTGATGTGTGCCATCATCTCACAGTCTTAAAAGTTTCTTTTCATTCACCAGTTTGGAAACAGTGTTTTTGTAGAATCTGCAAAGTCATATTTTTGAGT |  | Chr16 | 32534349 | 9
4 | 24 (nucleic acid, listed as Homo sapiens) GATGAATGCACATATCACAAAAAGTTTCTCAGATTGCTTCTGTCTAGATTTTATGTGAAGTTATTTCCTTTTCTACCATAGAACCCAAAGCACTTATAATGTCCCCTTGCAGATTCTACAAAAAGAATGTTTCAAAACTGCTCAATCAAAAGAAAGGTTCAAATTTGTGAGATGAATGCTCGCATCACCAAGAAGTTTCTCAAAATACTTCTGTCTAGTTTTTATGTGAAGACATTTCTTTTTCCGTGATAGGTCTCAAAATGATCAAAATTTCCACTTGCAAATTCTACAAAAAGAGAGTTTCAAAGCTGCTCAATCAAAAGAAAGGTTTATATCTGTGAGATGAACACACACTTCACAAAGCAGTTTCTAAGATTTCTTCTGCCTAGATTTTATGTAATGATATTTCCTTTTCTACCATACTTTGCAAACTGCTCCAAATGTCCACCTGTAGATTCTACAAAAACAGTGTTTCCAAACTGCTCAATCAAAAGAAAGGTTAACTCTGTGAGATGAACTCACACATCACAAAGAAGTTTCTCAGAATTCTTCTGTCTAGTTCTAATGTGAAGATATTTCCTTTTGGACCAGAGGCCCCAAGGCTATCGAAATGTCCCCTTGTAGATTCTACAAAAAGAGTATTTCAAAACTGGTCCATCAAGAGAAAGGCTCAACTCTGGGAGATGAATGCACACATCACAAAGAAGTTTCTCAGAATGCTTCTATCTAGTTTTTACATGAAGCTATTTCCTTTTCCACCATAAGCCTCAAAGCGCTCCAAATGTCCACTTGCAGGTTCTGCAAAAAGAGAGTTTCCAAAGTTCTCAATCAAAAGAAACGGTTAACTCTGTGAGATAAATGCACACATCACAAAGAAGTTTCTCAGAATTTTTCTGTCTAGTTTTTGTGTGAAGATATTTCATTTTC | AK311573 | Chr21 | 10749086 | 49
5 | 13 (nucleic acid, listed as Homo sapiens) TATCGAAAATTCACCCCCGATATTCACGTAGGTTCTTTTCTATTTTCCCTAAGCGTCGGCAGGTTTGAGAAATAAAGGGACAGAGTACAAAAGAGAGAAATTTTAAAGCTGGGCGTCCGGGGGAGACATCACATGTTGGTAGGTTCCATGATGCCCCACAAGCCGTAAAAACCAGCAAGTTTTTATTAGTGATTTTCAAAAGGGGAGGGAGTGTACGAATAGGTGTGGGTCACAGAGATCACGTGCTTCACAAGGTAATAGAATATCACAAGGCAAATGGAGGCAGGGCGAGATCACAGGACCACAGGACCGGGGTGAAATTAAAATTGCTAATGAAGTTTTGGGCACCATTGTCATTGATAACATCTTATCAGGAGACAGGGTTTGAGAGACAACCGGTCTGACCAAAATTTATTAGGTGGGAATTTCCTCGTCCTAATAAGCCTGGGAGTGCTATGGGAGACTGGGGCTTATTTCATCCCGTAGAGGCAACCATAAAAGACAGGCCCAAGCGGCCATTTAGAGCCTCCCAGGACATTCTCTTTCTCAGGGTGTTCCTTGCTGAGAAAAAGAATTCAGATATTTCTCCATTTGCTTTTGAAAGAAGAGAAATATGGCTCTGTTCCCGGCTCACGGCGCAGATTTAAGGTTATCTCCTTTTCCCTGAACAATTGCTGTTATCCTGTTCTTTTTTCAAGGTGCCCAGATTTCATATTGTTCAAACACACATGCTTACAATTTGTGCAGTTAAGCAATATCACAGGGTCCTGAGGGACATACATCCTCCTCAGCTGACAGGATTAAGAGATTAAAGTAAAGACAGGCATAGGAAATCACAAGGGTATTGATTGGGGAAGTGATAAGTGTCCATGAAATCTTCACAATTTATGTTTAGAGATTGCAGTAAAGACAGGCATAAGAAATTATAAAAGTATTAATTTGGGGAACTAATAAATGTCCATGAAATCTTCACAATCCACGTTCTTCTGCCATGGCTTCAGCCGGTCCCTCCGTTCGGGGTCCCTGACTTCCCGCAACA | none | Chr14/ and Chr3 |  | 4
6 | 20 (nucleic acid, listed as Homo sapiens) TTCTTCTCACGGAGTGAAACTTTTCCTTTGATTGAGCAGTTTCGAAACTCTCTTTTTGTAAAATCTGCAAGTGAACATTTGGAGTGCTTTGTGGCCTATGATAGAAAAGGAAATATTTTCACTTAAAATCTAGACAGAAGCAATCTGAGAAACTTCTTTGTGATGTTTGTATTCATCTTACATAGTTAAACCTTTCTTTTGATTGAGCAGTTTTGAAACTCTCTTTTTGTCGAATCTGTAAGAGGACATTTGGAGTGCTTTCAGGCCTATGGTGAAAAAGGAAGTATCTTCTCATGAAAACTAGACAGAAGAATTCAGACAAACTTCTTTGTGATGTGTGCATTTATCTCACAGACTTGAACCTTTCTTTTGATTGAGCAGTTTGAAACACTCTTTTTGTAGAATCTGCAAGTGGACATTTGGAGCACGTGGAGGCCTATAGTGGAAATGGAAATGTCTTCACACTAAAAACTAGACAGAAGAATTCTGAGAAACTTCTTTGTGATCTTTGCATTCATCTCACAGAGTTGAACCTTTCTTTTCATTGAGCAGTTTGAAAACACTCTTTTTGTAGAATCGGCAAGTGGACATTTGGAACGCATTGCAGACTATGATGGAAAAGGAAATATCTCCA | AK311573 | Chr21 | 10752909 | 24
